According to paper PMC6362288:

Molecular target: protein G (UniProt P19909)
Assay: ELISA; polystyrene wells modified with the PrG-Gra complex (PrG adsorbed on graphene, 2:1); mAb 5, 10, 15 µg/ml; unreacted mAb in the supernatant by Bradford, bound mAb by Anti-IgGk-HRP at 450 nm

absorbance (Anti-IgGk-HRP) against PS modified with the PrG alone: 2 fold
Substance: mouse monoclonal IgG2b (mAb) (antibody)
